In the supplement of paper PMC11246515:
± gives the standard deviation of the averaged measurements.

Test: total protein half-life in vivo (active degradation + dilution); higher = more stable protein
[1] = E. coli NCM3722 delta-clpP delta-lon delta-hslV, growth: N-lim chemostat, doubling time 6 h
[2] = E. coli NCM3722 delta-clpP, growth: N-lim chemostat, doubling time 6 h
[3] = E. coli NCM3722 delta-hslV, growth: N-lim chemostat, doubling time 6 h
[4] = E. coli NCM3722 delta-lon, growth: N-lim chemostat, doubling time 6 h
[5] = E. coli NCM3722 delta-smpB, growth: N-lim chemostat, doubling time 6 h
[6] = wild type E. coli NCM3722, growth: C-lim chemostat, doubling time 3 h
[7] = wild type E. coli NCM3722, growth: C-lim chemostat, doubling time 6 h
[8] = wild type E. coli NCM3722, growth: C-lim chemostat, doubling time 12 h
[9] = wild type E. coli NCM3722, growth: N-lim chemostat, doubling time 6 h
[10] = wild type E. coli NCM3722, growth: N-lim chemostat, doubling time 12 h
[11] = wild type E. coli NCM3722, growth: P-lim chemostat, doubling time 6 h
[12] = wild type E. coli NCM3722, growth: P-lim chemostat, doubling time 12 h

## MDQKQIEEIVRSVMASMGQAAPAPSEAKCATTNCAAPVTSESCALDLGSAEAKAWIGVENPHRADVLTELRRSTVARVCTGRAGPRPRTQALLRFLADHSRSKDTVLKEVPEEWVKAQGLLEVRSEISDKNLYLTRPDMGRRLCAEAVEALKAQCVANPDVQVVISDGLSTDAITVNYEEILPPLMAGLKQAGLKVGTPFFVRYGRVKIEDQIGEILGAKVVILLVGERPGLGQSESLSCYAVYSPRMATTVEADRTCISNIHQGGTPPVEAAAVIVDLAKRMLEQKASGINMTR
[1]
  total protein half-life in vivo: 5.05 ± 0.91 h
[2]
  total protein half-life in vivo: 3.65 ± 0.13 h
[3]
  total protein half-life in vivo: 3.19 ± 0.053 h
[4]
  total protein half-life in vivo: 4.21 ± 0.95 h
[5]
  total protein half-life in vivo: 3.11 ± 0.17 h
[6]
  total protein half-life in vivo: 2.6 ± 0.1 h
[7]
  total protein half-life in vivo: 5.43 ± 0.85 h
[8]
  total protein half-life in vivo: 8.48 ± 0.82 h
[9]
  total protein half-life in vivo: 3.41 ± 0.32 h
[10]
  total protein half-life in vivo: 4.31 ± 0.15 h
[11]
  total protein half-life in vivo: 4.69 ± 0.096 h
[12]
  total protein half-life in vivo: 9.58 ± 0.56 h

## MDRDQTNSSLFNDDPVLHATWLYYQEGKSQTEVAAIMGVSRVTVVKYLQTARENGLVHINLDVNVFGSIDAALQIRDKFNLQRVIIVPDGEHAGKRDDTKLMRTRLSRAGGMYLNQVIENGDVLGVAWGRTIHQMSKTMTPKSCKNVTVIQMLGSMPSQPDLTIIESSSQIAYKLSGRVASLHVPAVVSSARLAMELQAEPIIRSNFDVLTRCTKAFFVVGNALDENPLIRVGVLNKKEMQTYRDLGAVGVICGRFYDKEGMPVVADVDQRILGISLAQLRQIERKIFLAGGERGYDATLGALLGGYVTDLIVDEGTAEFLLACELPH
[1]
  total protein half-life in vivo: 7.27 ± 0.75 h
[2]
  total protein half-life in vivo: 6.31 ± 0.21 h
[3]
  total protein half-life in vivo: 6.85 ± 0.93 h
[4]
  total protein half-life in vivo: 6.37 ± 0.93 h
[5]
  total protein half-life in vivo: 5.92 ± 0.29 h
[6]
  total protein half-life in vivo: 3.03 ± 0.26 h
[7]
  total protein half-life in vivo: 6.27 ± 0.17 h
[8]
  total protein half-life in vivo: 11.5 ± 2.3 h
[9]
  total protein half-life in vivo: 5.82 ± 0.46 h
[10]
  total protein half-life in vivo: 11.9 ± 0.26 h
[11]
  total protein half-life in vivo: 5.93 ± 0.12 h
[12]
  total protein half-life in vivo: 12 ± 0.53 h

## MDRFPRSDSIVQPRAGLQTYMAQVYGWMTVGLLLTAFVAWYAANSAAVMELLFTNRVFLIGLIIAQLALVIVLSAMIQKLSAGVTTMLFMLYSALTGLTLSSIFIVYTAASIASTFVVTAGMFGAMSLYGYTTKRDLSGFGNMLFMALIGIVLASLVNFWLKSEALMWAVTYIGVIVFVGLTAYDTQKLKNMGEQIDTRDTSNLRKYSILGALTLYLDFINLFLMLLRIFGNRR [P0AAC4]
[2]
  total protein half-life in vivo: 3.08 h
[4]
  total protein half-life in vivo: 2.51 h
[5]
  total protein half-life in vivo: 2.75 h
[6]
  total protein half-life in vivo: 2.15 ± 0.5 h
[7]
  total protein half-life in vivo: 2.98 h
[8]
  total protein half-life in vivo: 6.02 h
[9]
  total protein half-life in vivo: 3.09 h
[10]
  total protein half-life in vivo: 5.33 h
[11]
  total protein half-life in vivo: 3.85 ± 0.28 h
[12]
  total protein half-life in vivo: 6.88 ± 0.24 h

## MDRIIEKLDHGWWVVSHEQKLWLPKGELPYGEAANFDLVGQRALQIGEWQGEPVWLVQQQRRHDMGSVRQVIDLDVGLFQLAGRGVQLAEFYRSHKYCGYCGHEMYPSKTEWAMLCSHCRERYYPQIAPCIIVAIRRDDSILLAQHTRHRNGVHTVLAGFVEVGETLEQAVAREVMEESGIKVKNLRYVTSQPWPFPQSLMTAFMAEYDSGDIVIDPKELLEANWYRYDDLPLLPPPGTVARRLIEDTVAMCRAEYE
[2]
  total protein half-life in vivo: 5.5 ± 1.5 h
[3]
  total protein half-life in vivo: 5.52 ± 2 h
[4]
  total protein half-life in vivo: 4.5929 ± 0.0003 h
[5]
  total protein half-life in vivo: 4.57 ± 0.72 h
[6]
  total protein half-life in vivo: 3.06 ± 1.1 h
[7]
  total protein half-life in vivo: 5.09 ± 0.28 h
[8]
  total protein half-life in vivo: 11.1 ± 0.68 h
[9]
  total protein half-life in vivo: 4.5 ± 0.24 h
[10]
  total protein half-life in vivo: 6.936 ± 0.055 h
[11]
  total protein half-life in vivo: 5.97 ± 0.23 h
[12]
  total protein half-life in vivo: 11.17 ± 0.051 h

## MDRRRFIKGSMAMAAVCGTSGIASLFSQAAFAADSDIADGQTQRFDFSILQSMAHDLAQTAWRGAPRPLPDTLATMTPQAYNSIQYDAEKSLWHNVENRQLDAQFFHMGMGFRRRVRMFSVDPATHLAREIHFRPELFKYNDAGVDTKQLEGQSDLGFAGFRVFKAPELARRDVVSFLGASYFRAVDDTYQYGLSARGLAIDTYTDSKEEFPDFTAFWFDTVKPGATTFTVYALLDSASITGAYKFTIHCEKSQVIMDVENHLYARKDIKQLGIAPMTSMFSCGTNERRMCDTIHPQIHDSDRLSMWRGNGEWICRPLNNPQKLQFNAYTDNNPKGFGLLQLDRDFSHYQDIMGWYNKRPSLWVEPRNKWGKGTIGLMEIPTTGETLDNIVCFWQPEKAVKAGDEFAFQYRLYWSAQPPVHCPLARVMATRTGMGGFSEGWAPGEHYPEKWARRFAVDFVGGDLKAAAPKGIEPVITLSSGEAKQIEILYIEPIDGYRIQFDWYPTSDSTDPVDMRMYLRCQGDAISETWLYQYFPPAPDKRQYVDDRVMS
[1]
  total protein half-life in vivo: 6.6 ± 0.085 h
[2]
  total protein half-life in vivo: 6.09 ± 0.27 h
[3]
  total protein half-life in vivo: 5.73 ± 0.087 h
[4]
  total protein half-life in vivo: 5.99 ± 0.14 h
[5]
  total protein half-life in vivo: 5.86 ± 0.28 h
[6]
  total protein half-life in vivo: 3.22 ± 0.084 h
[7]
  total protein half-life in vivo: 6.205 ± 0.046 h
[8]
  total protein half-life in vivo: 12.5 ± 1.2 h
[9]
  total protein half-life in vivo: 6.44 ± 0.42 h
[10]
  total protein half-life in vivo: 12.6 ± 0.7 h
[11]
  total protein half-life in vivo: 6.71 ± 0.95 h
[12]
  total protein half-life in vivo: 12.628 ± 0.0049 h

## MDSARALIARGWGVSLVSRCLRVSRAQLHVILRRTDDWMDGRRSRHTDDTDVLLRIHHVIGELPTYGYRRVWALLRRQAELDGMPAINAKRVYRIMRQNALLLERKPAVPPSKRAHTGRVAVKESNQRWCSDGFEFCCDNGERLRVTFALDCCDREALHWAVTTGGFNSETVQDVMLGAVERRFGNDLPSSPVEWLTDNGSCYRANETRQFARMLGLEPKNTAVRSPESNGIAESFVKTIKRDYISIMPKPDGLTAAKNLAEAFEHYNEWHPHSALGYRSPREYLRQRACNGLSDNRCLEI [P0CF53]
[1]
  total protein half-life in vivo: 5.39 ± 1.7 h

## MDSHTLIQALIYLGSAALIVPIAVRLGLGSVLGYLIAGCIIGPWGLRLVTDAESILHFAEIGVVLMLFIIGLELDPQRLWKLRAAVFGCGALQMVICGGLLGLFCMLLGLRWQVAELIGMTLALSSTAIAMQAMNERNLMVTQMGRSAFAVLLFQDIAAIPLVAMIPLLATSSASTTMGAFALSALKVAGALVLVVLLGRYVTRPALRFVARSGLREVFSAVALFLVFGFGLLLEEVGLSMAMGAFLAGVLLASSEYRHALESDIEPFKGLLLGLFFIGVGMSIDFGTLLENPLRIVILLLGFLIIKIAMLWLIARPLQVPNKQRRWFAVLLGQGSEFAFVVFGAAQMANVLEPEWAKSLTLAVALSMAATPILLVILNRLEQSSTEEAREADEIDEEQPRVIIAGFGRFGQITGRLLLSSGVKMVVLDHDPDHIETLRKFGMKVFYGDATRMDLLESAGAAKAEVLINAIDDPQTNLQLTEMVKEHFPHLQIIARARDVDHYIRLRQAGVEKPERETFEGALKTGRLALESLGLGPYEARERADVFRRFNIQMVEEMAMVENDTKARAAVYKRTSAMLSEIITEDREHLSLIQRHGWQGTEEGKHTGNMADEPETKPSS
[2]
  total protein half-life in vivo: 7.26 ± 1 h
[3]
  total protein half-life in vivo: 6.68 ± 1.4 h
[4]
  total protein half-life in vivo: 6.07 ± 0.42 h
[5]
  total protein half-life in vivo: 6.12 ± 0.22 h
[6]
  total protein half-life in vivo: 3.62 ± 0.14 h
[7]
  total protein half-life in vivo: 6.07 ± 0.45 h
[8]
  total protein half-life in vivo: 13.1 ± 0.2 h
[9]
  total protein half-life in vivo: 6.452 ± 0.033 h
[10]
  total protein half-life in vivo: 11.9 ± 1.1 h
[11]
  total protein half-life in vivo: 6.64 ± 0.37 h
[12]
  total protein half-life in vivo: 12.2 ± 1.2 h

## MDSSFTPIEQMLKFRASRHEDFPYQEILLTRLCMHMQSKLLENRNKMLKAQGINETLFMALITLESQENHSIQPSELSCALGSSRTNATRIADELEKRGWIERRESDNDRRCLHLQLTEKGHEFLREVLPPQHNCLHQLWSALSTTEKDQLEQITRKLLSRLDQMEQDGVVLEAMS [P0ACR9]
[1]
  total protein half-life in vivo: 6.37 ± 0.21 h
[2]
  total protein half-life in vivo: 6.705 ± 0.017 h
[3]
  total protein half-life in vivo: 5.82 ± 1 h
[4]
  total protein half-life in vivo: 5.39 ± 0.61 h
[5]
  total protein half-life in vivo: 4.81 ± 0.11 h
[6]
  total protein half-life in vivo: 2.7 ± 0.27 h
[7]
  total protein half-life in vivo: 5.49 ± 0.42 h
[8]
  total protein half-life in vivo: 11 ± 0.57 h
[9]
  total protein half-life in vivo: 4.78 ± 0.44 h
[10]
  total protein half-life in vivo: 7.04 ± 0.45 h
[11]
  total protein half-life in vivo: 4.86 ± 0.51 h
[12]
  total protein half-life in vivo: 9.8 ± 0.2 h
